Our source for the protein stability index values is the supplement of paper PMC10567573.

The data set in a line: protein stability index of a GFP-peptide fusion (GPS, HEK-293T) (PSI 1-6); higher = more stable. Conditions: c terminus: native.
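Note: lentivirally expressed fusion library, cells FACS-sorted into six equal-sized GFP/DsRed ratio bins, PSI computed from sequencing read fractions per bin weighted by bin number.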

For the protein LPALFTDLYSQEITAEEAREALPK [SNF8 addK], for the setting “parent: NP_009172.2”, the protein stability index was found to be 5.17.

Take EQRNSRWNTVLRAVKAKTHHLEPK [TRPA1 addK]: the protein stability index (parent: NP_015628.1) worked out at 5.03.

DGWIRVSSDNVADLHEKYSGSTPK [PSMB5 addK]: under “parent: NP_002788.1”, the protein stability index was found to be 4.81.

As to CQPISFSGFGAEDDDLGGLGLGPK [POLD2 addK], the protein stability index (parent: NP_006221.1) was found to be 4.81.

Regarding HSLRAVSTDPPHHDHHDEFCLMPK [BEX2 addK], the protein stability index (parent: NP_116010.1) stood at 4.67.
